Measured values: patent US12534534 (F STAR BETA, dated 2026)
Where a chain is given by its changes, count along the chain named. Each block holds one binder with its values, some of them ahead of it.

How the values were obtained:
TNFRSF1A-Fc = molecular target: T1, TNFRSF1A-Fc (human, UniProt P19438 30-211, limits assumed); experiment: SPR, antigen immobilised on CM5 chip
T1 construct: bought; also called TNFRSF1A (R&D Systems, 372-RI-050/CF); not shown: Fc part of the bought fusion
T1 sequence (looked up): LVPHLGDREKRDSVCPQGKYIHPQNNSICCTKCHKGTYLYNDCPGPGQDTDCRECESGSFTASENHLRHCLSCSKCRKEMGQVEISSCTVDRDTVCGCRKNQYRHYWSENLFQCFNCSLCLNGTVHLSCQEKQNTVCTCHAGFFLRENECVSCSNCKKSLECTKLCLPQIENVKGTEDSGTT
Method: (§1) Flow cell 1 was run as a blank immobilisation. The five FS20-22-49AA/FS30 mAb² were diluted to 1 μM and 1 nM in 1×HBS-EP buffer (GE Healthcare, product code BR100188), allowed to flow over the chip for 3 min and then allowed to dissociate for 4 minutes. A 30-second injection of 10 mM glycine pH 1.5 was used for regeneration. […] Binding levels were determined at the end of the association phase and compared.
(§2) Specificity was tested against the same five human TNFRSF members closely-related to CD137 (TNFRSF1A, TNFRSF1B, GITR, NGFR and CD40) plus an additional closely-related TNFRSF member, human DR6 (DR6-Fc; R&D Systems, 144-DR-100), using SPR as described in Example 3.1.

TNFRSF1B-Fc = molecular target: T2, TNFRSF1B-Fc (human, UniProt P20333 23-257); experiment: SPR, antigen immobilised on CM5 chip
T2 construct: bought; also called TNFRSF1B (R&D Systems, 726-R2-050); not shown: Fc part of the bought fusion
T2 sequence (looked up): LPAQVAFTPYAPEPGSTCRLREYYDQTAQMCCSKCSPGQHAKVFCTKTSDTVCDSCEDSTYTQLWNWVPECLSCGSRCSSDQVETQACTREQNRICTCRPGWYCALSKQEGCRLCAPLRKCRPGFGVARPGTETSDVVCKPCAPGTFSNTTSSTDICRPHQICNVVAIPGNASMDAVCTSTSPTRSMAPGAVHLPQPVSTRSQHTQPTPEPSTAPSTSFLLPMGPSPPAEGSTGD
Method: as §1, §2

GITR-hFc-Avi = molecular target: T3, GITR-hFc-Avi (human, UniProt Q9Y5U5 26-161); experiment: SPR, antigen immobilised on CM5 chip
T3 construct: in-house produced; not shown: hFc and Avi part
T3 sequence: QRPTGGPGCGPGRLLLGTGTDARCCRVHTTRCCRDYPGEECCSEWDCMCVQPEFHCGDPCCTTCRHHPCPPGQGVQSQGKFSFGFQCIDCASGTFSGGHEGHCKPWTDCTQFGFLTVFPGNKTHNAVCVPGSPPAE
Method: as §1, §2

NGFR-Fc = molecular target: T4, NGFR-Fc (human, UniProt P08138 29-250); experiment: SPR, antigen immobilised on CM5 chip
T4 construct: bought; also called NGFR (R&D Systems, 367-NR-050/CF); not shown: Fc part of the bought fusion
T4 sequence (looked up): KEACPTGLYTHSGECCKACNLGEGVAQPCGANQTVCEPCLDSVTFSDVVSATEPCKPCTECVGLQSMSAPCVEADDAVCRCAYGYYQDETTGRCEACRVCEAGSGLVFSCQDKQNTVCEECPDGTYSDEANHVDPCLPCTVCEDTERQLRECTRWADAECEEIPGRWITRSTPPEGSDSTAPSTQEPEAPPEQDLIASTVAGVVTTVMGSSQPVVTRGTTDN
Method: as §1, §2

CD40-mFc = molecular target: T5, CD40-mFc (human, UniProt P25942 21-193); experiment: SPR, antigen immobilised on CM5 chip
T5 construct: in-house produced; not shown: mFc part
T5 sequence (P25942 21-193): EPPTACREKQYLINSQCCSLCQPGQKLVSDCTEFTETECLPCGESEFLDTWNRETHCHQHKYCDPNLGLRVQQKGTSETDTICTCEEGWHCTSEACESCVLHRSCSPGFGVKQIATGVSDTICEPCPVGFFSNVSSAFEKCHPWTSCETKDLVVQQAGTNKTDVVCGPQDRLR
Method: as §1, §2

DR6-Fc = molecular target: T6, DR6-Fc (human, UniProt O75509 42-349, limits assumed); experiment: SPR, antigen immobilised on CM5 chip
T6 construct: bought; also called human DR6 (R&D Systems, 144-DR-100); not shown: Fc part of the bought fusion
T6 sequence (looked up): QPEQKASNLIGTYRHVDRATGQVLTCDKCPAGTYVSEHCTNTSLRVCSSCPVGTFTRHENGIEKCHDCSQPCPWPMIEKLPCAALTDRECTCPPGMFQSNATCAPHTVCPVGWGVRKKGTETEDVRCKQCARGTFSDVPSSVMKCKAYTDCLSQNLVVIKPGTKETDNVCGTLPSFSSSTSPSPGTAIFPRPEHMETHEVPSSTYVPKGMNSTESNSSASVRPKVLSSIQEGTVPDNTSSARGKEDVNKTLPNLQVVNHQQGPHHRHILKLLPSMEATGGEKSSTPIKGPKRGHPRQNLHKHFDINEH
Method: as §1, §2

cCD137-mFc-Avi = molecular target: T7, cCD137-mFc-Avi (cynomolgus, Homodimer through the mouse Fc (one chain given). In the biotinylated version one biotin sits on the Avi-tag lysine of each monomer.); experiment: SPR (Biacore 3000), mAb captured by anti-human Fc, dimeric CD137-mFc as analyte, 1:1 model with mass transfer
T7 construct: dimer; biotinylated version used on streptavidin plates; also called cyno CD137-mFc-Avi; cyno CD137-mFc
T7 chain: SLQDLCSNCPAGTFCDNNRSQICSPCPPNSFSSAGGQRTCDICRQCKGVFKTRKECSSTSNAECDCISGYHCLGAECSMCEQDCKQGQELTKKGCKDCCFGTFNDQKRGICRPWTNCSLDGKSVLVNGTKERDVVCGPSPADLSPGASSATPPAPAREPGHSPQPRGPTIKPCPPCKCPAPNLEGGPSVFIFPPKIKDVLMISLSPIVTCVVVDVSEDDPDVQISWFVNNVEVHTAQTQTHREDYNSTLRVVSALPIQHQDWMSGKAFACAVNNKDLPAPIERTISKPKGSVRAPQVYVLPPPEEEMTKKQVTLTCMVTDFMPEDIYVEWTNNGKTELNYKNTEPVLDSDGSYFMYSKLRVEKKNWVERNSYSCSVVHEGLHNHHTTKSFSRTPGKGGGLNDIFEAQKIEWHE
Method: Briefly, 25 µg/ml anti-human IgG (Fc) antibody (GE Healthcare, Human Antibody Capture Kit, BR100839) was coated on flow cells 1, 2, 3 and 4 of a Biacore sensor chip CM5 (GE Healthcare, BR100012) for 3 minutes at 5 µl/min, achieving a final response of approximately 4300 RU. The mAb² clones, diluted in HBS-EP buffer (GE Healthcare, BR100188) at 0.5 µg/ml, were injected individually on flows cell 2, 3 and 4 at 30 µl/min to achieve a response of approximately 80 RU. […] Regeneration was achieved by injecting 3 M magnesium chloride (GE Healthcare, Human Antibody Capture Kit, BR100839) for 30 seconds at a rate of 30 µl/min. […] These slightly less stringent conditions were used to assess whether this molecule could bind to cyno CD137-mFc. Subtracted data (flow cell 2-flow cell 1, flow cell 3-flow cell 1, or flow cell 4-flow cell 1) were analysed using BIAevaluation 3.2 Software (GE Healthcare) to identify binding using the model 1:1 binding with mass transfer, with refractive index (RI) constant 0.

[1] = molecular target: T8, human CD137 on DO11.10-hCD137 cells (human, UniProt Q07011 24-255); experiment: cell-based or functional assay
T8 sequence (Q07011 24-255): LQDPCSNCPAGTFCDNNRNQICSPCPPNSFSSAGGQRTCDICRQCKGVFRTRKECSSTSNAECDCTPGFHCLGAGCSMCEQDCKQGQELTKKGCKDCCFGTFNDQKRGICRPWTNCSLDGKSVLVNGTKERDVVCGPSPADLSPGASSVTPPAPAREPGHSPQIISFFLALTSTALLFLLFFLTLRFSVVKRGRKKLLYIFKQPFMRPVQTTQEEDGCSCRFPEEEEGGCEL

[2] = molecular target: T8, human CD137 on DO11.10-hCD137 cells; experiment: cell binding at 10 nM to DO11.10-hCD137 cells, against the parent FS20-22-49AA/FS30-5
[3] = molecular target: T8, human CD137 on DO11.10-hCD137 cells; experiment: cell binding at 10 nM to DO11.10-hCD137 cells, against the parent FS20-22-49AA/FS30-16

binding result (TNFRSF1A-Fc): no binding
binding result (TNFRSF1B-Fc): no binding
binding result (GITR-hFc-Avi): no binding
binding result (NGFR-Fc): no binding
binding result (CD40-mFc): no binding
binding result (DR6-Fc): no binding
Kd (cCD137-mFc-Avi): 0.34 nM
B1: G1/MOR7480.1 (antibody, human IgG1, lambda)
heavy: not shown
light: SYELTQPPSVSVSPGQTASITCSGDNIGDQYAHWYQQKPGQSPVLVIYQDKNRPSGIPERFSGSNSGNTATLTISGTQAMDEADYYCATYTGFGSLAVFGGGTKLTVLGQPKAAPSVTLFPPSSEELQANKATLVCLISDFYPGAVTVAWKADSSPVKAGVETTTPSKQSNNKYAASSYLSLTPEQWKSHRSYSCQVTHEGSTVEKTVAPTECS
notes: human IgG1 without LALA; also called MOR7480.1 in IgG1 format

DO11.10-hCD137 T cell activation assay EC50 (nM), crosslinked [1]: 5.9 nM
fold change of cell binding at 10 nM against the parent clone [2]: < 1.3 fold
B2: FS20-22-49AA/FS30-5 variant, Methionine (100H) to L (bispecific antibody, V domains shown)
VH: EVQLLESGGGLVQPGGSLRLNCAASGFTFSSYAMSWVRQAPGKGLEWVSAISGSGGSTYYADSVKGRFTISRDNSKNTLYLQMNSLRAEDTAVYYCARSYDKYWGSSMYSGLDYWGQGTLVTVSS
VL: EIVLTQSPGTLSLSPGERATLSCRASQSVSSSYLAWYQQKPGQAPRLLIYGASSRATGIPDRFSGSGSGTDFTLTISRLEPEDFAVYYCQQYYSYYPVTFGQGTKVEIKR

fold change of cell binding at 10 nM against the parent clone [3]: < 1.6 fold
B3: FS20-22-49AA/FS30-16 variant, Methionine (100A) to P (bispecific antibody, V domains shown)
VH: EVQLLESGGGLVQPGGSLRLSCAASGFTFSNYAMHWVRQAPGKGLEWVSTIDPTDGATNYADSVKGRFTISRDNSKNTLYLQMNSLRAEDTAVYYCARSKYYTYPQYVALDYWGQGTLVTVSS
VL: B2 VL with Y92G, Y93S, S94R, Y95F, Y96F, V98I
notes: Single-site variant of the parent mAb^2 FS20-22-49AA/FS30-16
